Measurements reported in publication PMC4986862.

Molecular target: BD–PTLΔC1 (PETAL LOSS with the C-terminal activation region removed, fused to the GAL4 binding domain) (Arabidopsis thaliana)
Assay: two-hybrid; quantitative: α-galactosidase activity of the MEL1 reporter in liquid cultures, triplicate technical assays; BD–PTLΔC1 bait

fold lower reporter (α-galactosidase) activation than AD–AKIN10: > 10 fold
B1: AD–AKIN11 (full-length AKIN11 fused to the GAL4 activation domain) (natural protein)
chain: MDHSSNRFGNNGVESILPNYKLGKTLGIGSFGKVKIAEHVVTGHKVAIKILNRRKIKNMEMEEKVRREIKILRLFMHPHIIRQYEVIETTSDIYVVMEYVKSGELFDYIVEKGRLQEDEARNFFQQIISGVEYCHRNMVVHRDLKPENLLLDSRCNIKIADFGLSNVMRDGHFLKTSCGSPNYAAPEVISGKLYAGPEVDVWSCGVILYALLCGTLPFDDENIPNLFKKIKGGIYTLPSHLSSEARDLIPRMLIVDPVKRITIPEIRQHRWFQTHLPRYLAVSPPDTVEQAKKINEEIVQEVVNMGFDRNQVLESLRNRTQNDATVTYYLLLDNRFRVPSGYLESEFQETTDSGSNPMRTPEAGASPVGHWIPAHVDHYGLGARSQVPVDRKWALGLQSHAHPREIMNEVLKALQELNVCWKKIGHYNMKCRWVPGLADGQNTMVNNQLHFRDESSIIEDDCAMTSPTVIKFELQLYKAREEKYLLDIQRVNGPQFLFLDLCAAFLTELRVI
